# Results as given in the DeepSol protein solubility set.
# Test: soluble on expression in E. coli; label from the status in PepcDB or PDB records
row,Sequence,soluble on expression in E. coli
1,MGSDKIHHHHHHDAPLEQALTLAGDNRKELQQVLGHYEGDSLKHKAACFLIENMIGKGTIRYLLRESDSCYIQQEPEPDLTCITADYLIENIDLAFEVWQKYPWCKQLSFREFCRNILPYRLKQEPLDRWRSYYYTRYKMTVDSLARAGATMREIVFFFNSQHGKKYLHDAAKIPGDFSIELIEKLGGGTCDHLALNAVQLMRAVGIPLNLDILPYHGKVNGGHAYNSFTDENGKFFYFSPYEREPERNQWIAPLVQRVCYERQPEPKIGRNRWNTQLVNRLLKEVTDEYYLSDSVRLPVHTSDTVAYIATFNRGAFKVVSQGRVESNSVLHRVLPYGLLYFQMADKKGKLVPTGNPFVMTPDSIHFITPIRQTTVLNGILTYDVKRVLELGYEAYTLYYWKDGWQPVKEVTSKDSRTLDFGEVPVRSLFLVCGNTYMGRMQRPFLLEDGKPVYY,not soluble
2,MSLRNIKWAILGPGTIARDFAKAISEVDNNIYAVASRNIERAKKFANEYKAEKFYGDYDEMLRDENIDVVYISTPHCNHYEYIIKSLENNKHVFCEKAITVNGNQLKEIVDLANKKNLIVREAMTIYHMPLYKKLRELVDEGKIGKVKMIQVSFGSLKEYDVNNRFFSKDLAGGALLDIGTYALSFTRYFLSSQPEEILTTVKKFETGVDEQSGIILKNAEDEMAVISLTMRAKQPKRGVVAGEKAYITVENFPRADKATITYPDGSVEVVEAGETDRALVYEVQDMKACILNKDTDYTLQLSLGVMNIMDEVRSQWGIRYPFEEGHHHHHH,soluble
3,MGSDKIHHHHHHMRALVLAAGKGTRMKSKIPKVLHPLSGRPMIEWVIETAGKVAQKVGVVLGFEAELVRKALPEWVDVFVQGEQLGTAHAVMCAKDFIEPGDDVLILYGDVPLISENTLKRMIEEHRKGADVTILVADLEDPSGYGRVIQDGDKYRIIEDTDLPEELKSVTTINTGFYVFSGDFLLRALPEIKNENAKGEYYLTDAVNFAEKVRVVRTDDLLEITGVNTRKTLVWLEEQLRMRKIEELLENGVTILDPATTYIHYSVEIGMDTVIYPMTFIEGKSRVGENCEIGPMTRIVDCEIGNNVKITRSECFKSVIEDDVSVGPFARLREGTILKKSSKIGNFVEIKKSTIGEGTKAQHLSYIGDAFVGKNVNVGAGTITCNYDGKKKNPTFIEDGAFIGSNSSLVAPVRIGKGALIGAGSVITEDVPPYSLGLGRARQVVKEGWVLKKRKEE,not soluble
4,GPGSMLRNTDVRLFSTFALNPETSVAPHGPPRGLVNRYVSMGLPPWAAWCNKVNRYSLYRMSGVTQRSFLPKPPQEMDVIWLNERVRERVRTSRQVQNVYRQLKYPYVKTGIHYSDVLDHWVQVPMVEAAMFEVEKDGGFDNFILKRSGPELRSTYGERIRRHILVRQKEIQKNFVLQKQAQMLVESMEKEILPMEDGKKVEEVLEKYGIDKEQLLRDIARAAVAKKQQLASAVPQPSHVEVSTN,not soluble
5,MAEQISHKKSLRVSSLNKDRRLLLREFYNLENEPNKGRQEARIGEKASEAHSGEEQVTDVNIDTEANTEKPVKDDELSATEEDLKEGSEDAEEEIKNLPFKRLVQIHNKLLGKETETNNSIKNTIYENYYDLIKVNDLLKEITNANEDQINKLKQTVESLIKEL,soluble
6,MAKVLVLYYSMYGHIETMARAVAEGASKVDGAEVVVKRVPETMPPQLFEKAGGKTQTAPVATPQELADYDAIIFGTPTRFGNMSGQMRTFLDQTGGLWASGALYGKLASVFSSTGTGGGQEQTITSTWTTLAHHGMVIVPIGYAAQELFDVSQVRGGTPYGATTIAGGDGSRQPSQEELSIARYQGEYVAGLAVKLNG,soluble
7,MGSDKIHHHHHHMIIDLSQLPEPEVIENLDFETIYQELLGDFREAMAGEWTAEVESDPVLKLLQLAAYRELLLRARINDAARAVMLAYASGADLDQIGAGFNVQRLLIRPAQPEAVPPVEAQYESDKSLRNRIQLAFEQLSVAGPRNAYIAHALGADGRVADASATSPAPCEVLISVLGVEGNGQAPEAVLQAVRLALNAEDVRPVADRVTVRSAGIVPYQVKAQLYLFPGPEAELIRAAAEASLRDYISAQRRLGRDIRRSALFATLHVEGVQRVELQEPAADVVLDETQAAYCTGYAITLGGVDE,not soluble
8,MGSDKIHHHHHHMAESIRPLTKNDRQQFVTVMTKVFAKDPLFLYIFGDLYNDHRAQRRARTFMGFIFDKSMERQAEAVWGLFDKDTLLGTYVVESCPAETNHSFAELYRLMILIFRLSLQLPPKMTWQLNRYMRVTRAHAPSIPHHYLTIIGVRKEAQGAGRGRNLLEHIFGTIGSGELSLDTEKKENVTLYKKFGFVLTDVVKCGPINVYCMRKTIRPRQKN,not soluble
9,MISPSKKRTILSSKNINQKPRAVVKGNELRSPSKRRSQIDTDYALRRSPIKTIQISKAAQFMLYEETAEERNIAVHRHNEIYNNNNSVSNENNPSQVKENLSPAKICPYERAFLREGGRIALKDLSVDEFKGYIQDPLTDETIPLTLPLGDKKISLPSFITPPRNSKISIFFTSKHQGQNPETKISRSTDDVSEKKVVRKLSFHVYEDE,not soluble
10,MGSSHHHHHHGGTGENLYFQGGSGRRLPLFCRRPSRCCGATASGSGSSSAAVLAASAAPSVLVLAARGIATSGRVTNEDRRWWLVHLECAPDVTPGTFVSWLDCCGTHTTKKLIERNIWTIEQVAELDSDRVDELKYKEGCLKMDVVWEHARTIITPLKQREVSGGVESQLQSRILELRKKRELERQRELLARERATVSDKREETLRRLRESVAAKKAALRKKLDEQHGEATPAASESASTEAHRGTAEAAVEDEAVGNIVDRMSGGNPPRA,not soluble
11,TLQIQFKKYELPPLPYKIDALEPYISKDIIDVHYNGHHKGYVNGANSLLERLEKVVKGDLQTGQYDIQGIIRGLTFNINGHKLHALYWENMAPSGKGGGKPGGALADLINKQYGSFDRFKQVFTETANSLPGTGWAVLYYDTESGNLQIMTFENHFQNHIAEIPIILILDEFEHAYYLQYKNKRADYVNAWWNVVNWDAAEKKLQKYLTK,soluble
12,DSDVEIATIALLDTVQPAHLAPDTKEETVKRWERYSAFAKKTYGLDFPVPYELLETAGEDALLAMMAEFLSTTDATEHGLSAGVLEHQRASFVDNRILDRMDMQRWANVKIPVMLFRAERMHDGAIELEPAYAEIEPDGGWSAIVEDLVIIQLSGDHLAVVDEPEIGKVGVALTNRIEQLQGK,not soluble
13,MGSDKIHHHHHHMTTRERIIETAITLFNEKGTKAVTTNHIAAAMEISPGNLYYHFRNKEEIIRAIFDQMDAVGFEDYEQIIAEHPAGSLAAMEETFLMIQRFNWRYRFFKRELTSLILSDPLLREKHLRVHQAMLRLVRHSIKSSIAQGVLRPMEEDELGLFAEEIWLLTLFWLNYLEVGGEDVTESTLRRGNELVRRTVCCRLTEEGARMLGRSGPAAP,not soluble
14,MSLAHEMRDGSSRGLRIDFHVHLGVYADHKPWVTEWIKQSQPDPGEYDAYIERYSDPGAFEELLAAEGVDYACVLAELCPITTGICSNEQVEAFCKGRKRLIPFCSINPHLTTDLGGELRRLVETEGFRGLKLYPSYQHYYLNDPRVYPLYQAAQELGIPVLIHTGSSVFKGTRIKYCDPIHLDDVANDFPSLNLVMAHSGRGFWYDRAFFLSKLHSNLYMEVSGLPPSKLMTYFPELARNTDKVIFGSDWPGASQIKRNMDAIGALPLPAEGVEKILGGNAARLLNFEGHHHHHH,soluble
15,MAHHHHHHMLRFTHRALARKAAVKAGSRTSAAAGATAALHAAPAAPQNAVSIPPIPGVRSVRAFRTQKMEALQPQPAAATAGRKAFAAKGSKHVKAALKSRPSKKVKLPKKAAAPSRAQQAQQVKHAKQLKAPKSAAKEISKKAKTAKARK,soluble
16,MSLAQRLATGKAGSIGLVMPTAPGHQSDVHFGEFLAGLGEEAVRHDFHFVIMPSDPDDEVAALRRLAISGNVDALFIAYMRGHDPRLAMLKSLSMPYVVHGRSFGAELDYPYLDIDNEGAFYDATRLLLQLGHTRFALMNGPMHLDFAIRRRNGVISALAERGLTLEEDCMSHALMTDEQGLLAMERFLQLPERPTAILCSSTVMALGAIRAVNQAGLRLGEDVSLIAHDDVLPLLKPENFSVPLTTTRSSLRAAGVRIAQRLIGTVKQAGPFPEQELWKTELIVRASTGPAPQEGHHHHHH,soluble
17,MGSDKIHHHHHHAIGFGLSYGTEIESIGLGLKYQYNITNPIRLEPSLNYFIENDNVSMLDINMNLHYLCPVGRSVKLYPLFGFTFSNWMFDLGDGFDIDVDGDHIHIDKDDDNHNECRVGVNIGGGADFALTSSWIMNFELRYQLVSDFDQAVFNLGFAYRF,not soluble
18,NNNLTWNIYANMTWNKNKIIKLSTDEPIEYTYQIIEEGRPYRQFYMKEYAGVDRENGKPLWYLNEEGNETTSDYNAAAKRYVGDADPKVLGGFGTNLSWKGFDFNMNFTYRLGGKVFDSGASFTGFGMANRTPLKDVALNSWTEENKDAKYPQYIYGDPNKATQTSSRFLYSSNFLRISNMTLGYTVPVNLTKKIFIQKLRAYISIDNLYTFTSNDFVGYNPETYSNGVIAWQYPATRTFIGGIQLSF,not soluble
19,SSDANLDSSKKNFLEGEVDDEESVILTLVPVKDDANMEQMEPSVSSTSDVKLEKPKKYNPGHLLQTNEQFTAPQKARCKIPALPLPTILPPINKVCRDTLRDWCQQLGLSTNGKKIEVYLRLHRHAYPEQRQDMPEMSQETRLQRCSRKRKAVTKRARLQSSYEMNERAEETNTVEVITSAPGAMLASWARIAARAVQPKALNSCSIPVSVEAFLMQASGVGWCVVHGRLLSADTKGWVRLQFHAGQAWVPTTHRRMISLFLLPACIFPSPGIEDNMLCPDCAKRNKKMMKRLMTVEK,soluble
20,MSLKWFNTLSHNRWLEQETDRIFNFGKNAVVPTGFGWLGNKGQIKEEMGTHLWITARMLHVYSVAASMGRPGAYDLVDHGIKAMNGALRDKKYGGWYACVNDQGVVDASKQGYQHFFALLGAASAVTTGHPEARKLLDYTIEVIEKYFWSEEEQMCLESWDEAFSQTEDYRGGNANMHAVEAFLIVYDVTHDKKWLDRALRIASVIIHDVARNGDYRVNEHFDSQWNPIRDYNKDNPAHRFRAYGGTPGHWIEWGRLMLHLHAALEARFETPPAWLLEDAKGLFHATIRDAWAPDGADGFVYSVDWDGKPIVRERVRWPIVEAMGTAYALYTLTDDSQYEEWYQKWWDYCIKYLMDYENGSWWQELDADNKVTTKVWDGKQDIYHLLHCLVIPRLPLAPGLAPAVAAGLLDINAKEGGSHHHHHH,soluble
21,MGLVTSILGRREYRLLQNSVTKKHLCKFMGVEFDYNDLDEITEIRVGENIFDTFESYARFAMKDTMKSIFAECKAMKTCLARIEREKQTEASMNHKIRQCYITLRRLCQLYYKFYQDLEKLKIPEHAWNVPLVKKAEKSIVVLDHAIYKFKAKGNLDVKKFREEVSHQYNIIEEVLKQFKSMDEGEYVEMRMKEEMKTEEA,not soluble
22,GHMTKLNQESTAPKVLFTGVVDARGERAVLALGGSLAGSAAEASHLVTDRIRRTVKFLCALGRGIPILSLDWLHQSRKAGFFLPPDEYVVTDPEQEKNFGFSLQDALSRARERRLLEGYEIYVTPGVQPPPPQMGEIISCCGGTYLPSMPRSYKPQRVVITCPQDFPHCSIPLRVGLPLLSPEFLLTGVLKQEAKPEAFVLSPLEMSST,soluble
23,MAHHHHHHMILKEFCAEGYERIPEAIAAGAQRVELCARLDVGGVTPSADTIQNTVEYCHSRNAMVMVIIRCREGNFYYSDEEFQVMLKSVILARRLGADGVVFGAIDTLGNVDPRISILLSAAKGMSLTFHMAFDEIPTEKQFQAIDALTAYGFHRILTHGGSASTNIEENLDWLKELVLYAKNRISIMPGGGVTNLNAEKIARDLGVTEVHGTRVVRFV,not soluble
